Test results as given in publication PMC10433963.

Tests used:
[1] = target: ^H7-SUMOClpC1^FLAG (recombinant ClpC1) (M. smegmatis) (UniProt A0R574)
[2] = target: ^H7-SUMOClpC1^FLAG (recombinant ClpC1) (M. smegmatis) (UniProt A0R574); remark: listed apart in the source

Chain of ^H7-SUMOClpC1^FLAG (recombinant ClpC1) (M. smegmatis) (A0R574 whole entry): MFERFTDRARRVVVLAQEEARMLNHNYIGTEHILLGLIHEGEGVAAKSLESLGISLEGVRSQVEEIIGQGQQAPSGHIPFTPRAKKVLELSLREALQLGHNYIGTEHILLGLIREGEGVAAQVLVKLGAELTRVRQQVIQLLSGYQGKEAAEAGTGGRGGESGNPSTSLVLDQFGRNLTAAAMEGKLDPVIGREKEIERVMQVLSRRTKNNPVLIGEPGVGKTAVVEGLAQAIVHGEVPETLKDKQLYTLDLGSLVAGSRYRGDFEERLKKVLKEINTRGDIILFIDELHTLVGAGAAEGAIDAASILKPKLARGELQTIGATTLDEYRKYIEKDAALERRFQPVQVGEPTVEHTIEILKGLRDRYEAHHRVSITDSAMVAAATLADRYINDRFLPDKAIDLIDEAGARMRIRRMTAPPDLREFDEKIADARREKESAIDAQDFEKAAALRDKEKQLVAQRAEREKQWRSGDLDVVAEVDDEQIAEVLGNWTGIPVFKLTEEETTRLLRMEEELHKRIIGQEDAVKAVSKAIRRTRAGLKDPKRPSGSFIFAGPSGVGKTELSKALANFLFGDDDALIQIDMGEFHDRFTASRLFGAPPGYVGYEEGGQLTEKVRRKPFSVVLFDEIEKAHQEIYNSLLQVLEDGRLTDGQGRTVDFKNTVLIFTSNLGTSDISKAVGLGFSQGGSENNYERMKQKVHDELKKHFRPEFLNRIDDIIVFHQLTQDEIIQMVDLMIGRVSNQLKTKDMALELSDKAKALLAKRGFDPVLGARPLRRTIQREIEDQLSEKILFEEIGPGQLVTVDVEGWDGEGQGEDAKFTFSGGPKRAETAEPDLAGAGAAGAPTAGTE

Substance | Km of degradation by ClpC1P1P2, loss of GFP fluorescence, Michaelis-Menten analysis [2] | Km of degradation by 1 uM ClpC1P1P2, loss of GFP fluorescence, Michaelis-Menten analysis [2] | other results
MSMEI_3879 (recombinant) (natural protein) |  |  | degradation of 10 uM MSMEI 3879 by 1 uM ClpC1 and 1 uM ClpP1P2 in vitro, SDS-PAGE densitometry, protein hydrolyzed within 40 min [1]: 75%
GFP appended with the last 13 residues of MSMEI_3879 | 5.97 µM |  | 
GFP preceded by the first 13 residues of MSMEI_3879 | 19.1 µM |  | 
GFP^MSMEI_3879 (MSMEI_3879 fused to the C terminus of GFP) |  | 18.8 µM | 
^MSMEI_3879GFP (MSMEI_3879 fused to the N terminus of GFP) |  | 2.06 µM | 
